Blank lines part the entries; values can stand above or below the molecule they belong to.
Assays:
human IL-33 [1] = biological target: T1, human IL-33 (human, UniProt O95760 112-270, limits assumed); assay: cell-based or functional assay
T1 sequence (looked up): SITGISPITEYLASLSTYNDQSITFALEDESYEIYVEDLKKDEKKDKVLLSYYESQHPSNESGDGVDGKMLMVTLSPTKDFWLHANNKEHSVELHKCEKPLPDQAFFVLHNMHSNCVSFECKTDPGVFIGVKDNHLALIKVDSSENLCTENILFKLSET

human IL-33 [2] = biological target: T1, human IL-33; assay: KinExA, solution equilibrium, beads coated with histidine-tagged human IL-33
Description: (§1) The ability of the APE4909 antibody described in Example 2 to interact with IL-33 was analyzed biophysically using a KINEXA™ 3200 biosensor platform from Sapidyne Instruments (Boise, Id.). Binding experiments for human and cynomolgus IL-33 (cynolL-33) were conducted as described below and were run twice independently. Conditions for the first experiment are shown non-parenthetically, while conditions for the second experiment are provided parenthetically.
(§2) Solid phase was prepared using azlactone-coated beads coated using a 50 μg/mL solution of histidine-tagged human IL-33. Binding experiments were performed in 1×PBS pH 7.4, 0.1% BSA. The APE4909 antibody at 10 pM (or 20 pM) final concentration was incubated with IL-33 at 200 pM to 3.4 fM (or 400 pM to 6.7 fM) final concentrations for 3 (or 4) days at 4° C. 5 mL (or 10 mL) of each mixture was applied to the beads coated with IL-33 at a rate of 0.25 mL/min for 1200 seconds (or 2400 seconds). Free antibody was detected with an ALEXAFLUOR™ 647-(Life Technologies, Carlsbad, Calif.) labeled donkey anti-human antibody. All data fit using standard KINEXA™ software.

cynomolgus IL-33 = biological target: T2, cynomolgus IL-33 (cynomolgus, UniProt A0A2K5W3I1 112-269); assay: KinExA solution-phase equilibrium titration: APE4909 at a fixed concentration incubated with cynomolgus IL-33 as titrant, free antibody captured on cIL-33-coated beads
T2 construct: also called cynoIL-33; cIL-33
T2 sequence: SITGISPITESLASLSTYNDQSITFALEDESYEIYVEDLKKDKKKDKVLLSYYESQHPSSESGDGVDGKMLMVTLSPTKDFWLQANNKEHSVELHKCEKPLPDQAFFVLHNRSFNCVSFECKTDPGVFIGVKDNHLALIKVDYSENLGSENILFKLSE
Description: as §1
as §2, with “5 mL (or 10 mL) of each mixture was applied to the beads coated with IL-33 at a rate of 0.25 mL/min for 1200 seconds (or 2400 seconds).” left out, “All data fit using standard KINEXA™ software.” left out
Experiments were performed as described above for human IL-33, except that the APE4909 antibody at 20 pM and 100 pM final concentration was incubated with cIL-33 at 3 nM to 315 fM final concentrations for 24 hours at 4° C. […] Free antibody was detected with an ALEXAFLUOR™ 647-(Life Technologies, Carlsbad, Calif.) labeled donkey anti-human antibody. […]

IC50 of inhibition of IL-33-mediated release of IL-5 in primary human basophils (human IL-33 [1]): 20 nM
Molecule: monomeric human ST2 protein (APE3906) (from UniProt Q01638 19-328) (receptor)

Kd (human IL-33 [2]): 1 pM
Kd (cynomolgus IL-33): 0.035 nM
IC50 of inhibition of IL-33-mediated release of IL-5 in primary human basophils (human IL-33 [1]): 2.2 nM
IC50 of inhibition of IL-33-mediated release of IL-9 from primary human basophils (human IL-33 [1]): 3 nM
B1: APE4909 antibody (antibody, V domains shown)
VH: QVQLMQSGAEVKKPGASVKVSCKASGYTFTSYWMHWVRQAPGQGLEWMGTIYPRNSNTDYNQKFKARVTMTRDTSTSTVYMELSSLRSEDTAVYYCARPLYYYLTSPPTLFWGQGTLVTVSS
VL: DIQLTQSPSFLSASVGDRVTITCKASQDVGTAVAWYQQKPGKAPKLLIYWASTRHTGVPSRFSGSGSGTEFTLTISSLQPEDFATYYCQQAKTYPFTFGSGTKLEIKR
notes: the claims treat these entries as variable regions; It was detected with an anti-human antibody; also called APE04909; APE4909.02 (lot suffix)
